Source: patent publication US20240360201A1

Experiments:
[1] = molecular target: FcγRIIIA-F176-Sino (human) (UniProt P08637); assay: SPR Biacore T200; binder captured on protein A chip, Fc receptor as analyte
FcγRIIB-Acro (human) = FcγRIIB-Acro (human) (UniProt P31994); assay: SPR (Biacore T200), antibody captured on protein A sensor chip, Fc receptor as analyte; analyte range 3200nm-25nm

Substance PDL1-avelumab (antibody) has a Kd [1] of 0.563 µM and a Kd (FcγRIIB-Acro (human)) of 3.33 µM.
